According to PMC10585004:

Target: Bovine Thyroglobulin (Sigma-T1001) (bovine) (UniProt P01267)
Assay: SAXS; XFEL small-angle scattering, liquid jet (GDVN) with reservoir delivery, thyroglobulin 0.7 mg/ml in PBS; experimental form factor compared with the profile computed (CRYSOL) from the cryo-EM dimer model

## Bovine Thyroglobulin (Sigma-T1001), P01267 20-2769
  stoichiometry N: 2
